Measured values reported in patent US20040180405A1 (NEUROSEARCH A S, published 2004).
Substitutions are numbered along the chain they refer to.

How the values were obtained:
Assay in all cases: cell-based or functional assay
[1] = molecular target: T1, KCNQ3 potassium channel subunit (human, UniProt O43525 1-872)
T1 sequence (looked up): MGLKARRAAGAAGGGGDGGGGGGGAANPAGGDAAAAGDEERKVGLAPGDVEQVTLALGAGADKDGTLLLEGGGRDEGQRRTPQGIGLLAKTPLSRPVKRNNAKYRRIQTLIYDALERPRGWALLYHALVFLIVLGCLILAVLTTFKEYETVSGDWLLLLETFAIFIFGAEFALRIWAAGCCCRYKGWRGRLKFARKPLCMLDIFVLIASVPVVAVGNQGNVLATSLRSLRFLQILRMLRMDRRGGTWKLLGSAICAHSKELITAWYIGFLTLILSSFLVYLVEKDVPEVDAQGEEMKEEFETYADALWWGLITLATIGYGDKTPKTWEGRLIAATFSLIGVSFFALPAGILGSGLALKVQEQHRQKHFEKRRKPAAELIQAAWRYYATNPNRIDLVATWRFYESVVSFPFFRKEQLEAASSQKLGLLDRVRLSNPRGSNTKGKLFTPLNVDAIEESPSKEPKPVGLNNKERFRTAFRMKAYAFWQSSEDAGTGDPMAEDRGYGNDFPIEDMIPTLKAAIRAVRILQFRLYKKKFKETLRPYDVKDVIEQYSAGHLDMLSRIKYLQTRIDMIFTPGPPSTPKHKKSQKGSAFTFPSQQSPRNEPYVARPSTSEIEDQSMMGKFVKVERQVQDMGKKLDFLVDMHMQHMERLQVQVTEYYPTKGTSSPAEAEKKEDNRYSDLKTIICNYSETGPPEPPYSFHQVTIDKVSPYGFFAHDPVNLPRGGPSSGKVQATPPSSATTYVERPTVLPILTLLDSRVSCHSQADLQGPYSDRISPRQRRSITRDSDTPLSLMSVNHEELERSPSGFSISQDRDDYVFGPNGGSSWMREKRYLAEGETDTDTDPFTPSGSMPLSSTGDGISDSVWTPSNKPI

KCNQ3 (T323Y) mutant = molecular target: T2, KCNQ3 (T323Y) mutant (human, UniProt O43525 1-872)
T2 sequence (looked up): T1 sequence (looked up) with T323Y

[2] = molecular target: T3, KCNQ3(G318S) dominant negative mutant (human, UniProt O43525 1-872)
T3 sequence (looked up): T1 sequence (looked up) with G318S

B1: KCNQ5 potassium channel subunit (other)
chain: MKDVESGRGRVLLNSAAARGDGLLLLGTRAATLGGGGGGLRESRRGKQGARMSLLGKPLSYTSSQSCRRNVKYRRVQNYLYNVLERPRGWAFIYHAFVFLLVFGCLILSVFSTIPEHTKLASSCLLILEFVMIVVFGLEFIIRIWSAGCCCRYRGWQGRLRFARKPFCVIDTIVLIASIAVVSAKTQGNIFATSALRSLRFLQILRMVRMDRRGGTWKLLGSVVYAHSKELITAWYIGFLVLIFSSFLVYLVEKDANKEFSTYADALWWGTITLTTIGYGDKTPLTWLGRLLSAGFALLGISFFALPAGILGSGFALKVQEQHRQKHFEKRRNPAANLIQCVWRSYAADEKSVSIATWKPHLKALHTCSPTKKEQGEASSSQKLSFKERVRMASPRGQSIKSRQASVGDRRSPSTDITAEGSPTKVQKSWSFNDRTRFRPSLRLKSSQPKPVIDADTALGTDDVYDEKGCQCDVSVEDLTPPLKTVIRAIRIMKFHVAKRKFKETLRPYDVKDVIEQYSAGHLDMLCRIKSLQTRVDQILGKGQITSDKKSREKITAEHETTDDLSMLGRVVKVEKQVQSIESKLDCLLDIYQQVLRKGSASALALASFQIPPFECEQTSDYQSPVDSKDLSGSAQNSGCLSRSTSANISRGLQFILTPNEFSAQTFYALSPTMHSQATQVPISQSDGSAVAATNTIANQINTAPKPAAPTTLQIPPPLPAIKHLPRPETLHPNPAGLQESISDVTTCLVASKENVQVAQSNLTKDRSMRKSFDMGGETLLSVCPMVPKDLGKSLSVQNLIRSTEELNIQLSGSESSGSRGSQDFYPKWRESKLFITDEEVGPEETETDTFDAAPQPAREAAFASDSLRTGRSRSSQSICKAGESTDALSLPHVKLK
IC50 of extracellular TEA (small molecule) on currents of co-expressed KCNQ5 and KCNQ3 (1:1); KCNQ5 homomers 71 mM [1]: ~200 mM | IC50 of extracellular TEA (small molecule) on currents of KCNQ5 co-expressed with KCNQ3 (T323Y); KCNQ5 homomers 71 mM (KCNQ3 (T323Y) mutant): ~30 mM | current relative to WT KCNQ5 currents on co-injection with the dominant negative mutant [2]: < 50%
